A word on the EC50: it is the concentration needed to bring the measured effect to its halfway point. High values mean weaker potency, low ones greater potency. As a reminder, the koff is the first-order rate constant of dissociation. What is called kon is the rate constant with which the complex forms.

The results in this text go back to patent US20250320284A1 (AC IMMUNE, published 2025).

Assay [1] addresses T1, human ASC (apoptosis associated speck-like protein containing a caspase-recruitment domain) (human, UniProt Q9ULZ3 1-195).
T1 construct: recombinant hASC in ELISA and SPR; endogenous ASC (cytoplasmic or specks) in Western blot and immunofluorescence; also called hASC; PYCARD
Description: ELISA, coated hASC. (In an ELISA, binding on a coated surface is turned into a signal by an enzyme label.)

The target in assay [2] is T2, mouse ASC (mouse, UniProt Q9EPB4 1-193).
T2 construct: recombinant mASC in ELISA and SPR; endogenous ASC of J774.A1 cells in Western blot and immunofluorescence; also called mASC
T2 sequence: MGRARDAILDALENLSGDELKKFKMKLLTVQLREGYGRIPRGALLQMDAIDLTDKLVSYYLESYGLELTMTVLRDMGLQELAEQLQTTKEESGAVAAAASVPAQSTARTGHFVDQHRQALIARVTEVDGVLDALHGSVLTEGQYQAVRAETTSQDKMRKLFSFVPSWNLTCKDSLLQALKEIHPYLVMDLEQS
Kind of assay: ELISA, coated mASC.

Assay [3] concerns the target T1, human ASC (apoptosis associated …). Description: SPR avidity mode, ASC immobilized.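 Further: Single-cycle SPR kinetics on Biacore T200, antibodies injected at 1.2–100 nM (3-fold steps), 300 s association, 900 s dissociation, double-referenced, 1:1 kinetic model fit.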
Assay [4] has as its target T2, mouse ASC. Description: SPR avidity mode, ASC immobilized.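 Further: Single-cycle SPR kinetics on Biacore T200, antibodies injected at 1.2–100 nM (3-fold steps), 300 s association, 900 s dissociation, double-referenced, 1:1 kinetic model fit.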
The target of assay [5] is T3, PYD domain of human ASC (human, UniProt Q9ULZ3 1-91, limits assumed).
T3 construct: biotinylated in BLI; His/MBP-tagged in the alanine ELISA; also called hPYD; human PYD
Description: ELISA, coated hPYD.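 Further: monoclonal antibody binding to plate-coated human ASC PYD measured by ELISA, with a phosphatase substrate absorbance read-out and EC50 from a variable slope curve fit.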

Assay [6] has as its target T1, human ASC (apoptosis associated …). Description: cell-based or functional assay.
The target is the same in assay [7]. Kind of assay: cell-based or functional assay. This is another data set of the same source.
Assay [8] shares this target. Kind of assay: SPR affinity mode, mAb captured.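 Further: Single-cycle SPR kinetics with mAbs captured on goat anti-mouse antibody, double-referenced against blank flow cell and buffer cycle, fitted by a 1:1 kinetic model.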
In assay [9] the target is T3, PYD domain of human ASC. Description: BLI binning on PYD, competitor 22D3A6-AB1.
Assay [10] deals with T3, PYD domain of human ASC. Description: BLI binning on PYD, competitor 23E5F7-AB2.
Assay [11] deals with T3, PYD domain of human ASC. Kind of assay: BLI binning on PYD, competitor 26A1G2-AB1.
Assay [12] addresses T3, PYD domain of human ASC. Description: BLI binning on PYD, competitor 31F10C5-AB1.
The target in assay [13] is T3, PYD domain of human ASC. Kind of assay: BLI binning on PYD, competitor 401H9B7-AB1.
Assay [14] concerns the target T3, PYD domain of human ASC. Kind of assay: BLI binning on PYD, competitor 416E6G4-AB1.
The target of assay [15] is T3, PYD domain of human ASC. Kind of assay: BLI binning on PYD, competitor 2610H7D3-AB1.
For assay [16], the target named is T3, PYD domain of human ASC. Description: BLI binning on PYD, competitor 2617C3A8-AB1.
Assay [17] deals with T3, PYD domain of human ASC. Description: BLI binning on PYD, competitor 2626B9D3-AB1.
Assay [18] addresses T4, CARD domain of human ASC (human, UniProt Q9ULZ3 107-195).
T4 construct: biotinylated in BLI; also called hCARD; human CARD
T4 sequence: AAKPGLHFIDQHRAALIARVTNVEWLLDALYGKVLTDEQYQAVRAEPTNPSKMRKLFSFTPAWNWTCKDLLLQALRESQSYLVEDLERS
Kind of assay: sandwich ELISA on MBP-tagged protein captured by anti-MBP antibody, signal as % of hPYD-WT.

Assay [19] deals with T4, CARD domain of human ASC. Description: ELISA, coated hCARD.
Assay [20] deals with T2, mouse ASC. Kind of assay: cell-based or functional assay.
Assay [21] has as its target T2, mouse ASC. Description: cell-based or functional assay. This is another data set of the same source.
Assay [22] has as its target T2, mouse ASC. Kind of assay: SPR affinity mode, mAb captured.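 Further: Single-cycle SPR kinetics with mAbs captured on goat anti-mouse antibody, double-referenced against blank flow cell and buffer cycle, fitted by a 1:1 kinetic model.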
The target of assay [23] is T1, human ASC (apoptosis associated …). Kind of assay: SPR affinity mode, steady-state fit, apparent KD.
The target of assay [24] is T4, CARD domain of human ASC. Description: sandwich ELISA on MBP-tagged protein captured by anti-MBP antibody, signal as % of hPYD-WT. This is another data set of the same source.
The target in assay [25] is T2, mouse ASC. Description: ELISA, coated mASC; ELISA on mASC protein.
Assay [26] addresses T2, mouse ASC. Description: SPR affinity mode, mAb captured; SPR affinity mode, mAb captured by Fc, mASC in solution.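 Further: Single-cycle SPR kinetics with mAbs captured on goat anti-mouse antibody, double-referenced against blank flow cell and buffer cycle, fitted by a 1:1 kinetic model.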
Assay [27] has as its target T2, mouse ASC. Description: SPR avidity mode, ASC immobilized; SPR avidity mode, mASC covalently immobilized, mAb as analyte.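 Further: Single-cycle SPR kinetics on Biacore T200, antibodies injected at 1.2–100 nM (3-fold steps), 300 s association, 900 s dissociation, double-referenced, 1:1 kinetic model fit.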

T3 sequence (Q9ULZ3 1-91 limits assumed): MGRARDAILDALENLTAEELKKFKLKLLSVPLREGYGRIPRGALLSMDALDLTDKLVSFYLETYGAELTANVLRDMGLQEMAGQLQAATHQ

B1: ACI-8019-2314F6H11-AB1 (antibody, V domains shown)
VH: QVQVQQSGADLARPGASVKLSCKASGYTFTNYGINWVKQRTGQGLEWIGEIYPKNIDIYYNEKFKGKATLTADKSSSTAYMELRSLTSEDSAVYFCGRSSFGFSGNYAMDYWGQGTSVTVSS
VL: DVVMTQTPLSLPVSLGDQASISCRSSQNLIHSNGITYLHWYLQKPGQSPKLLIYKVSNRFSGVPHRFSGSGSGTDFTLKISRVEAEDLGVYFCSQSTHVPWTFGGGTKLEIK
For the molecule B1, it took 0.1 nM to reach a half-maximal effect in assay [1] (EC50). The molecule also gave an EC50 with mouse ASC [2] of 0.2 nM. Moreover, in assay [3], the Kd worked out at 0.91 nM, the koff turned out to be 8e-05 s⁻¹ and the kon stood at 88000 M⁻¹ s⁻¹. This molecule displayed a Kd in the assay with mouse ASC [4] of 16.1 nM.

B2: ACI-8016-401H9B7-AB1 (antibody, V domains shown)
VH: QIQLVQSGPELKKPGETVKISCKASGYTFTKYGMNWVKQAPGKGLKRMGWINTYTGEPTYSDDFKGRFAFSLETSASTAYLQINNLKNDDTATYFCARLGYANSFDSWGQGTTLTVSS
VL: DIQMTQSPASLSATVGETVTITCRASENIYTYLAWYQQKQGKSPQLLVHNANTLVEGVPSRFSGSGSGTQFSLKINSLEPEDFGNYYCQYHYGSPYTFGGGTKLEIK
Consider B2, for which the EC50 was 0.1 nM in [1] and 0.06 nM with PYD domain of human ASC [5]. Moreover, the “Human ASC polymerization assay, IC50” value in assay [6] worked out at 3.1 nM. Also, the “IL-1β release, human monocytic cell line, IC50” value in assay [7] came to 6.94 nM. The Kd in assay [8] and in assay [3] was below 0.01 nM in each case. The koff was below 1e-05 s⁻¹ in [8] and 2.3e-07 s⁻¹ in assay [3]. Moreover, the kon in [8] was 96000 M⁻¹ s⁻¹; in assay [3], 74000 M⁻¹ s⁻¹. Besides, the normalized binding response in the assay with PYD domain of human ASC [9] came out at 90%; with PYD domain of human ASC [10], 83%; with PYD domain of human ASC [11], 24%; with PYD domain of human ASC [12], 95%; with PYD domain of human ASC [13], 3%; with PYD domain of human ASC [14], 47%. Further, the values for the normalized binding response in the assay with PYD domain of human ASC [15], in the assay with PYD domain of human ASC [16] and with PYD domain of human ASC [17] were 108%, 112% and 3%, respectively. Further, the binding result with CARD domain of human ASC [18] is reported as “no binding”.

B3: ACI-8016-23E5F7-AB1 (antibody, V domains shown)
VH: QVQLQQSEAELARPGASVKLSCKASGYTFTSYGIFWVKQRTGQGLEWIGEIYPRSGNTYYNENFRDKATLTADKSSSTAYMELRSLTSEDSAVYFCARQRDDYWGQGTTLTVSS
VL: QIVLTQSPAIMSASPGEKVTITCSVSSSVSYMYWFQQKPGTSPKVWIYSTSNLASGVPARFSGRGSGTSYSLTISRMEAEDAATYYCQQRSSYPFTFGSGTKLEIK
notes: also called 936.23E5F7
For B3, the half-maximal effective concentration (EC50) in [1] is 0.12 nM; with PYD domain of human ASC [5] it was 0.13 nM; with mouse ASC [2], 0.15 nM. For the same molecule, the binding result with CARD domain of human ASC [19] is listed as “no binding”. Besides, the “Human ASC polymerization assay, IC50” value in assay [6] is 5.8 nM. For the same molecule, the “Mouse ASC polymerization assay, IC50” value with mouse ASC [20] turned out to be 21 nM. Also, the “% IL-1β inhibition, mouse primary microglia, 420 nM mAb” value in the assay with mouse ASC [21] was 69.4%. In addition, the Kd with mouse ASC [22] was 10.3 nM; in assay [23], 27.1 nM. In the assay with mouse ASC [22], this molecule returned a koff of 0.00264 s⁻¹. In addition, the kon in the assay with mouse ASC [22] came to 261000 M⁻¹ s⁻¹.

B4: ACI-8016-2610H7D3-AB1 (antibody, V domains shown)
VH: QVQLQQSGVELARPGASVKLSCKASGFSFTSYGISWVKQKTGQGLEWIGQIYLRSSNTYYSEKFKDRATLTADKSSSTVYMELRSLTSEDSAVYFCARYYGSSSDYWGQGTTLTVSS
VL: DIQMNQSPSSLSASLGDTITINCHASQNINVWLSWYQQKPGNIPKVLINQASNLQTDVPTRFSGSGSGTDFKLIISRLQSEDIATYYCQQGQSYPWTFGGGTKLEIK
With B4, the EC50 in assay [1] amounted to 0.19 nM; in the assay with PYD domain of human ASC [5], 0.16 nM; with mouse ASC [2], 0.27 nM. Further, the “Human ASC polymerization assay, IC50” value in assay [6] was found to be 10.1 nM. Besides, the “Mouse ASC polymerization assay, IC50” value in the assay with mouse ASC [20] was determined as 60.4 nM. Also, the “IL-1β release, human monocytic cell line, IC50” value in assay [7] amounted to 25.2 nM. For the same molecule, in the assay with mouse ASC [21], the “% IL-1β inhibition, mouse primary microglia, 420 nM mAb” value was 87.3%. Moreover, the results for the Kd (in assay [8]; in the assay with mouse ASC [22]) were 0.27 nM and 0.41 nM, respectively. For the same molecule, the koff in assay [8] was 0.000201 s⁻¹; with mouse ASC [22], 0.000339 s⁻¹. Further, the kon in [8] came out at 747000 M⁻¹ s⁻¹; with mouse ASC [22], 831000 M⁻¹ s⁻¹. Further, the normalized binding response came to 2% with PYD domain of human ASC [9]; 0% with PYD domain of human ASC [10]; 1% in the assay with PYD domain of human ASC [11]; 2% in the assay with PYD domain of human ASC [12]; 73% with PYD domain of human ASC [13]; 6% in the assay with PYD domain of human ASC [14]. For the same molecule, the normalized binding response with PYD domain of human ASC [15] is 1%; in the assay with PYD domain of human ASC [16] it was 0%; in the assay with PYD domain of human ASC [17] it was 80%. Also, the binding result in the assay with CARD domain of human ASC [24] was “no binding”.

B5: ACI-8016-416E6G4-AB1 (antibody, V domains shown)
VH: QVQLKQSGPGLVQPSQSLSITCTVSGISLSSYGLHWVRQSPGKGLEWLGVIWSGGNTDYSATFISRLSISKDNSKSQVFFKMDSLQVDDTAIYYCARNEVWGQGTSVTVSS
VL: not shown
On to B5, for which the EC50 (in assay [1]; in the assay with PYD domain of human ASC [5]; with mouse ASC [25]) was 0.07 nM in each case. The binding result with CARD domain of human ASC [19] was “no binding”. The Kd is 14.9 nM in assay [8], 14.5 nM with mouse ASC [22], 0.85 nM in assay [3] and 4.88 nM with mouse ASC [27]. In addition, the koff in assay [8] came to 0.0025 s⁻¹; in the assay with mouse ASC [22], 0.00053 s⁻¹; in assay [3], 2.7e-05 s⁻¹; with mouse ASC [27] it was 0.00013 s⁻¹. The kon in [8] is 280000 M⁻¹ s⁻¹; in [3], 39000 M⁻¹ s⁻¹; in the assay with mouse ASC [26], 34000 M⁻¹ s⁻¹; with mouse ASC [27] it was 35000 M⁻¹ s⁻¹.
